From paper PMC4072508, “Genome-Wide Prediction and Validation of Peptides That Bind Human Prosurvival Bcl-2 Proteins” (PLoS Computational Biology, 2014)

T1: Mcl-1, Q07820
T1 chain: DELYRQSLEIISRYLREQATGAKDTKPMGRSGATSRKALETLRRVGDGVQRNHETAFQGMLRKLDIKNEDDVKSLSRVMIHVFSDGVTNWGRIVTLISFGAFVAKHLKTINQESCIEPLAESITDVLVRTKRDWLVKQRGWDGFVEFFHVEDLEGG

B1: VCL (peptide)
chain: KRALIQCAKDDAKASDEVTRLAKEVA
B2: LIPE (peptide)
chain: CALLGSTGERDCLAGDSAGGNLCFTV
B3: NEDD9 (peptide)
chain: SKFVILSAHKLVFIGDTLTRQVTAQD
B4: TEP1 (peptide)
chain: AALFLHAGCQLLTALEDGKVQVWSGS
B5: DCAF8 (peptide)
chain: TLHFNQRGTWLASGSDDLKVVVWDWV
B6: EEF2 (peptide)
chain: GSGLHGWAFTDKQFAEMYVAKFAAKG
B7: DDX7 (peptide)
chain: GLFSATSGVDDKYVADTFGQEVRPVS
B8: FLAD1 (peptide)
chain: LSPGRSVTAGIIIVGDEILKGHTQDT
B9: TIGD7 (peptide)
chain: VLSRIEAGRSLKSVMDEFGISKSTFY
B10: OBSCN (peptide)
chain: RCELQICGLAMADALEYLCVCGQERT
B11: CCT3 (peptide)
chain: DVGTGAGLLEDKKIGDEYFTFITDCK
B12: RYR1 (peptide)
chain: DLSAVTLSRELQAMAEQLAENYHNTW
B13: BAT3 (peptide)
chain: QRLINLVGESLRLLGNTFVALSDLRC
B14: EXOC5 (peptide)
chain: DEHISYVATKVCHLGDQLEGVNTPRQ
B15: CLTC (peptide)
chain: FRLAQMCGLHIVVHLDELEELINYYQ
B16: VPS13C (peptide)
chain: SRQPRDFGDSLARGLKGFLRGVVGGV
B17: CLTC (peptide)
chain: FRLAQMCGLHIVVHADELEELINYYQ
B18: PRPSAP1 (peptide)
chain: ITVVGDVGGRDAIIVDDIIDDVESFV
B19: BAT3 (peptide)
chain: QRLINLVGESDRLLGNTFVALSDLRC
B20: KPNB1 (peptide)
chain: DHTDGVVACAAGLIGDLCTAFGKDVL
B21: POLE (peptide)
chain: CILNSFYGYVMRKGLRWYSMEMAGIV
B22: SLC40A1 (peptide)
chain: AKFLLYLGHSDSTWGDRMWHFAVSVF
B23: CCDC76 (peptide)
chain: KLPVVGIGKHLCGMLTDLALRCLVET
B24: CPS1 (peptide)
chain: LRCEMASTGEDACFGEGIHTAFLKAM
B25: CCT3 (peptide)
chain: DVGTGAGLLEIKKILDEYFTFITDCK
B26: CREBBP (peptide)
chain: TPSRSALSSEDSLVGDTTGDTLEKFV
B27: TIGD7 (peptide)
chain: VLSRIEAGRSDKSVMDEFGISKSTFY
B28: ADCY10 (peptide)
chain: EKVLIFGGDIDKFAGDALLALWRVER
B29: POLQ (peptide)
chain: DLLGMVVVDELHMLLDSHRGYLLELL
B30: TBL1XR1 (peptide)
chain: AIKWDPTGNLDASCSDDMTLKIWSMK
B31: CLTCL1 (peptide)
chain: FRFAQLCGLHIVIHLDELEELMCYYQ
B32: KPNB1 (peptide)
chain: DHTDGVVACAAGLILDLCTAFGKDVL
B33: MSH3 (peptide)
chain: AVLCVECGYKDRFFGEDAEIAARELN
B34: DCAF8 (peptide)
chain: TLHFNQRGTWLASGLDDLKVVVWDWV
B35: NT5C2 (peptide)
chain: CDLLGAKGKDILYIGDHIFGDILKSK
B36: MLLT4 (peptide)
chain: KNIAGALAFWDANASELLNFIKQDRD
B37: VCL (peptide)
chain: KRALIQCAKDIAKALDEVTRLAKEVA
B38: CCDC76 (peptide)
chain: KLPVVGIGKHLCGMATDLALRCLVET
B39: CREBBP (peptide)
chain: TPSRSALSSELSLVLDTTGDTLEKFV
B40: HDLBP (peptide)
chain: RHFVIRRGQVLREILEEYGGVMVSFP
B41: DBC1 (peptide)
chain: ISDVQVFGYSLRFNLDLLRSAVQQVN

Biological target: Bcl-xL, Q07817
Assay: peptide SPOT array, c-Myc-tagged receptor at 1 uM or 100 nM, anti-c-Myc-Cy3

Bcl-xL, Q07817, sequence (Q07817 1-209): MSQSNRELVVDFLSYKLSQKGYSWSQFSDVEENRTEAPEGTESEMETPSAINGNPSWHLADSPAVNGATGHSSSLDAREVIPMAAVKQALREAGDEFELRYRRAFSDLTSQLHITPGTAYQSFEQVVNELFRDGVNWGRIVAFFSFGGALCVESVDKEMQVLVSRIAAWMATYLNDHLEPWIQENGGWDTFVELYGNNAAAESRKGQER

Row | Binder | SPOT signal as a fraction of Bim BH3's signal on the same receptor and array
1 | B1 | 0.05
2 | B2 | 0.01
3 | B3 | 0.05
4 | B4 | 0.02
5 | B5 | 0.02
6 | B6 | 0.12
7 | B7 | 0.02
8 | B8 | 0.01
9 | B9 | 0.11
10 | B10 | 0.02
11 | B11 | 0.01
12 | B12 | 0.02
13 | B13 | 0.05
14 | B14 | 0.02
15 | B15 | 0.02
16 | B16 | 0.34
17 | B17 | 0.02
18 | B18 | 0.02
19 | B19 | 0.08
20 | B20 | 0.02
21 | B21 | 0.29

Row | Binder | SPOT signal as a fraction of Bim BH3's signal on the same receptor and array
22 | B22 | 0.03
23 | B23 | 0.04
24 | B24 | 0.02
25 | B25 | 0.02
26 | B26 | 0.01
27 | B27 | 0.02
28 | B28 | 0.02
29 | B29 | 0.02
30 | B30 | 0.03
31 | B31 | 0.02
32 | B32 | 0.01
33 | B33 | 0.02
34 | B34 | 0.02
35 | B35 | 0.04
36 | B36 | 0.02
37 | B37 | 0.21
38 | B38 | 0.04
39 | B39 | 0.02
40 | B40 | 0.04
41 | B41 | 0.03

Biological target: T1, Mcl-1, Q07820
Assay: as above

Row | Binder | SPOT signal as a fraction of Bim BH3's signal on the same receptor and array
42 | B1 | 0.02
43 | B2 | 0.01
44 | B3 | 0.04
45 | B4 | 0.01
46 | B5 | 0.02
47 | B6 | 0.03
48 | B7 | 0.01
49 | B8 | 0.01
50 | B9 | 0.11
51 | B10 | 0.02
52 | B11 | 0.01
53 | B12 | 0.02
54 | B13 | 0.03
55 | B14 | 0.01
56 | B15 | 0.02
57 | B16 | 0.18
58 | B17 | 0.02
59 | B18 | 0.01
60 | B19 | 0.02
61 | B20 | 0.02
62 | B21 | 0.24

Row | Binder | SPOT signal as a fraction of Bim BH3's signal on the same receptor and array
63 | B22 | 0.03
64 | B23 | 0.03
65 | B24 | 0.03
66 | B25 | 0.02
67 | B26 | 0.01
68 | B27 | 0.02
69 | B28 | 0.02
70 | B29 | 0.02
71 | B30 | 0.03
72 | B31 | 0.03
73 | B32 | 0.02
74 | B33 | 0.02
75 | B34 | 0.02
76 | B35 | 0.04
77 | B36 | 0.02
78 | B37 | 0.05
79 | B38 | 0.03
80 | B39 | 0.01
81 | B40 | 0.05
82 | B41 | 0.02
